{
  "source": "paper PMC12887176",
  "about": "“IRF1 is a context-dependent homeostatic gatekeeper of basal immunity and antiviral readiness”",
  "target": "T1, IRF1 DBD-mNeonGreen (UniProt P10914 1-136)",
  "T1 sequence": "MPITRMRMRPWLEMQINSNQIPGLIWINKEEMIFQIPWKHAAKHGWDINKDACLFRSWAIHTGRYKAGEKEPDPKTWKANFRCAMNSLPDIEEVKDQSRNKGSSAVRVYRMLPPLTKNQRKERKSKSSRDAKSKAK",
  "experiment": "mass photometry; 1:1 protein:DNA; ~45 to ~65 kDa; 1:1 molar protein:DNA, 4 h at room temperature; protein lysed in PBS with 360 mM NaCl, 10% glycerol, DTT (assay buffers and pH not given); PBM: PBS, 360 mM NaCl, 1 mM DTT, 2% milk, 0.2% Triton X-100, room temperature",
  "settings": "protein: recombinant; tags: mNeonGreen fusion (42 kDa total); blunt",
  "data": [
    {"binder": "specific DNA (IRF1 consensus) (dsDNA) DNA 1: GAGAAGTGAAAGTACTTTCACTTCTC DNA 2: GAGAAGTGAAAGTACTTTCACTTCTC", "values": [
      {"measurement": "binding result", "result": "binds"}
    ]}
  ]
}
